Experimental data from patent US20220251204A1 (AstraZeneca / MedImmune, published 2022).

Tests used:
[1] = target: T1, human PD-1 expressed on cells (human, UniProt Q15116 25-288); assay: cell-based or functional assay
[2] = target: T2, human CTLA-4 expressed on cells (human, UniProt P16410 36-223); assay: cell-based or functional assay
T2 sequence: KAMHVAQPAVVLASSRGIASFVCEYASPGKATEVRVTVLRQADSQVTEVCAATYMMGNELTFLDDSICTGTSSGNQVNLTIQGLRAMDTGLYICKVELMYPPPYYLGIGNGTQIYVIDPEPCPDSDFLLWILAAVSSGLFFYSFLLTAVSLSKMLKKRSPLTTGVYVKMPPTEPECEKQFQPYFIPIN

[3] = target: T2, human CTLA-4 expressed on cells; assay: flow cytometry receptor occupancy, CHO cells expressing PD-1:CTLA-4 (10:1); free CTLA-4 detected with labeled anti-CTLA-4 mAb
[4] = target: T2, human CTLA-4 expressed on cells; assay: receptor occupancy on CHO cells expressing excess PD-1, flow cytometry
[5] = target: T1, human PD-1 expressed on cells; assay: flow cytometry receptor occupancy, CHO cells expressing PD-1:CTLA-4 (40:1); free PD-1 detected with labeled anti-PD-1 mAb
[6] = target: T2, human CTLA-4 expressed on cells; assay: flow cytometry receptor occupancy, CHO cells expressing PD-1:CTLA-4 (40:1); free CTLA-4 detected with labeled anti-CTLA-4 mAb
[7] = target: T1, human PD-1 expressed on cells; assay: flow cytometry receptor occupancy, CHO cells expressing PD-1:CTLA-4 (10:1); free PD-1 detected with labeled anti-PD-1 mAb
[8] = target: T3, human PD-1 antigen (soluble) (human, UniProt Q15116 25-170); assay: SPR, BIAcore T200; antibody captured on mouse anti-huIgG-Fab, antigen injected
T3 construct: also called hu PD1; Biotinylated human PD-1
Experimental: (§1) Binding experiments were carried out using a BIAcore T200 instrument (BIAcore). To capture the antibody, mouse anti-huIgG-Fab was immobilized on a CM5 chip to a target response of 2000 RU. 100 nM of the DuetMab or mAbs were flowed at 20 μL/min for 5 min to achieve approximately 100 response units of captured antibody. Antigen were then injected serially at a flow rate of 50 μl/min for 5 min. Kinetic parameters (kₒₙ and koff) and dissociation constant (KD) were calculated from a non-linear fit using BIAevaluation 4.1 software.

[9] = target: T4, human CTLA-4 antigen (soluble) (human, UniProt P16410 36-161); assay: as above
T4 construct: also called hu CTLA4; soluble CTLA-4 antigen
T4 sequence: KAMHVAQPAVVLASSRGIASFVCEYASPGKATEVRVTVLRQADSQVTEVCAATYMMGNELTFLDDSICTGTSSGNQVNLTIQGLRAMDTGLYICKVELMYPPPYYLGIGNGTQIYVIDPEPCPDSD
Experimental: as §1

cynomolgus PD-1 = target: T5, cynomolgus PD-1 (cynomolgus, UniProt B0LAJ3 25-170); assay: as above
T5 construct: also called cyno PD1
Experimental: as §1

cynomolgus CTLA-4 = target: T6, cynomolgus CTLA-4 (cynomolgus, UniProt G7PL88 36-161); assay: as above
T6 construct: also called cyno CTLA4
T6 sequence: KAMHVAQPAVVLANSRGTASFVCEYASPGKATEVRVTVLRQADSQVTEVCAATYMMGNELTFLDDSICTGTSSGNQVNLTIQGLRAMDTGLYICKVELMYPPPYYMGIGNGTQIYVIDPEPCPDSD
Experimental: as §1

mouse PD-1 = target: T7, mouse PD-1 (mouse, UniProt Q02242 25-167); assay: as above
T7 construct: also called mu PD1
T7 sequence (looked up): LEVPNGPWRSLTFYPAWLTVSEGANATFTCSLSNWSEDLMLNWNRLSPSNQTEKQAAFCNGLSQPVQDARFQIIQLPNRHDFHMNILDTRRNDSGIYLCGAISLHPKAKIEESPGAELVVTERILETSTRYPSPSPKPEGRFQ
Experimental: as §1

[10] = target: T2, human CTLA-4 expressed on cells; assay: flow cytometry, CHO cells expressing CTLA-4 only
[11] = target: T2, human CTLA-4 expressed on cells; assay: flow cytometry receptor occupancy, CHO cells expressing CTLA-4 only; free CTLA-4 detected with labeled anti-CTLA-4 mAb
[12] = target: T2, human CTLA-4 expressed on cells; assay: receptor occupancy on CHO cells, flow cytometry
[13] = target: T2, human CTLA-4 expressed on cells; assay: flow cytometry receptor occupancy, CHO cells expressing PD-1:CTLA-4 (40:1); free CTLA-4 detected with labeled anti-CTLA-4 mAb; remark: listed apart in the source
[14] = target: T1, human PD-1 expressed on cells; assay: flow cytometry, CHO cells expressing PD-1 only
[15] = target: T2, human CTLA-4 expressed on cells; assay: flow cytometry receptor occupancy, CHO cells expressing PD-1:CTLA-4 (10:1); free CTLA-4 detected with labeled anti-CTLA-4 mAb; remark: listed apart in the source
[16] = target: T2, human CTLA-4 expressed on cells; assay: flow cytometry receptor occupancy, CHO cells expressing PD-1:CTLA-4 (40:1), combination of the anti-PD-1 and anti-CTLA-4 mAbs; free CTLA-4 detected with labeled anti-CTLA-4 mAb; label stands beside the dark-diamond curve, which crosses 50 % at about 2.5 nM
[17] = target: T2, human CTLA-4 expressed on cells; assay: flow cytometry receptor occupancy, CHO cells expressing PD-1:CTLA-4 (40:1); free CTLA-4 detected with labeled anti-CTLA-4 mAb; remark: listed apart in the source
[18] = target: T1, human PD-1 expressed on cells; assay: flow cytometry receptor occupancy, CHO cells expressing PD-1:CTLA-4 (10:1); free PD-1 detected with labeled anti-PD-1 mAb; remark: listed apart in the source
[19] = target: T2, human CTLA-4 expressed on cells; assay: flow cytometry receptor occupancy, CHO cells expressing PD-1:CTLA-4 (10:1); free CTLA-4 detected with labeled anti-CTLA-4 mAb; remark: listed apart in the source

T5 sequence (B0LAJ3 entry or part of it limits assumed): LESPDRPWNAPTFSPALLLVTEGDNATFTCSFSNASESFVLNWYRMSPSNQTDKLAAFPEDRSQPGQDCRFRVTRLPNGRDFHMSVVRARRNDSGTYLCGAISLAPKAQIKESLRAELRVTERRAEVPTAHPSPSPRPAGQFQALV
T3 sequence (Q15116 25-170 limits assumed): as the sequence (B0LAJ3 entry or part of it limits assumed) above, with E2D, A10P, L19V, A35T, R75Q, A144T counted along it
T1 sequence (Q15116 25-288 limits assumed): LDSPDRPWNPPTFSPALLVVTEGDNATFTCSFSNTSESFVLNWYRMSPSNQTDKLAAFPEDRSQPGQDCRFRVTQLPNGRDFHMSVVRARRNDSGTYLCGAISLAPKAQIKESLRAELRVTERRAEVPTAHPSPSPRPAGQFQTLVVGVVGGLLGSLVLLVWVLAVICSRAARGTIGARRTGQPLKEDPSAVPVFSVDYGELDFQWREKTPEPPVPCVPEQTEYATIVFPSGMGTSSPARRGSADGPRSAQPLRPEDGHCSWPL

B1: PD-1/CTLA-4 DuetMab (bispecific antibody, human IgG1, kappa, lambda)
heavy 1: EVQLVESGGGLVQPGGSLRLSCAASGFTFSDYGMHWVRQAPGKGLEWVAYISSGSYTIYSADSVKGRFTISRDNAKNSLYLQMNSLRAEDTAVYYCARRAPNSFYEYYFDYWGQGTTVTVSSASTKGPSVFPLAPSSKSTSGGTAALGCLVKDYFPEPVTVSWNSGALTSGVHTFPAVLQSSGLYSLSSVVTVPSSSLGTQTYICNVNHKPSNTKVDKRVEPKSCDKTHTCPPCPAPEFEGGPSVFLFPPKPKDTLMISRTPEVTCVVVDVSHEDPEVKFNWYVDGVEVHNAKTKPREEQYNSTYRVVSVLTVLHQDWLNGKEYKCKVSNKALPASIEKTISKAKGQPREPQVCTLPPSREEMTKNQVSLSCAVKGFYPSDIAVEWESNGQPENNYKTTPPVLDSDGSFFLVSKLTVDKSRWQQGNVFSCSVMHEALHNHYTQKSLSLSPGK
light 1: QIVLTQSPATLSLSPGERATLSCSASSKHTNLYWSRHMYWYQQKPGQAPRLLIYLTSNRATGIPARFSGSGSGTDFTLTISSLEPEDFAVYYCQQWSSNPFTFGQGTKLEIKRTVAAPSVFIFPPSDEQLKSGTASVVCLLNNFYPREAKVQWKVDNALQSGNSQESVTEQDSKDSTYSLSSTLTLSKADYEKHKVYACEVTHQGLSSPVTKSFNRGEC
heavy 2: not shown
light 2: DIQMTQSPSSLSASVGDRVTITCRASQSINSYLDWYQQKPGKAPKLLIYAASSLQSGVPSRFSGSGSGTDFTLTISSLQPEDFATYYCQQYYSTPFTFGPGTKVEIKGQPKAAPSVTLFPPCSEELQANKATLVCLISDFYPGAVTVAWKADSSPVKAGVETTTPSKQSNNKYAASSYLSLTPEQWKSHRSYSCQVTHEGSTVEKTVAPTEVS
notes: also called DuetMab PD-1/CTLA-4; PD-1/CTLA-4 DuetMab bispecific antibody; copies: 1 + 1 + 1 + 1
- fold decrease in PD-1 reporter gene assay, potency [1]: ~9 fold
- fold decrease in CTLA-4 reporter gene assay, potency [2]: ~16 fold
- IC50 [3]: 0.38 nM
- fold lower concentration to saturate CTLA-4, against a combination of the monoclonal antibodies [4]: ~250 fold
- IC50 [5]: 14.4 nM
- IC50 [6]: 0.01 nM
- IC50 [7]: 12.2 nM
- Kd [8]: 0.81 nM
- koff [8]: 0.000236 s⁻¹
- kon [8]: 295000 M⁻¹ s⁻¹
- Kd [9]: 0.62 nM
- koff [9]: 0.000421 s⁻¹
- kon [9]: 684000 M⁻¹ s⁻¹
- Kd (cynomolgus PD-1): 0.44 nM
- koff (cynomolgus PD-1): 0.000215 s⁻¹
- kon (cynomolgus PD-1): 490000 M⁻¹ s⁻¹
- Kd (cynomolgus CTLA-4): 0.55 nM
- koff (cynomolgus CTLA-4): 0.000634 s⁻¹
- kon (cynomolgus CTLA-4): 1.14e+06 M⁻¹ s⁻¹
- Kd (mouse PD-1): 496 nM
- koff (mouse PD-1): 0.0693 s⁻¹
- kon (mouse PD-1): 140000 M⁻¹ s⁻¹
- EC50 (read off the curve) [10]: ~4 nM
- IC50 [11]: 4.6 nM
- fold lower concentration to saturate CTLA-4, against cells expressing only CTLA-4 [12]: ~500 fold
- IC50 [13]: 0.01 nM
- EC50 (read off the curve) [14]: ~4 nM
- IC50 [15]: 0.38 nM

B2: Anti-CTLA-4 IgG (antibody, V domains shown)
VH: QVQLVESGGGVVQPGRSLRLSCAASGFTFSSYGMHWVRQAPGKGLEWVAVIWYDGSNKYYADSVKGRFTISRDNSKNTLYLQMNSLRAEDTAVYYCARDPRGATLYYYYYGMDVWGQGTTVTVSS
VL: DIQMTQSPSSLSASVGDRVTITCRASQSINSYLDWYQQKPGKAPKLLIYAASSLQSGVPSRFSGSGSGTDFTLTISSLQPEDFATYYCQQYYSTPFTFGPGTKVEIK
notes: also called tremelimumab; MEDI1123
- IC50 [16]: 2.4 nM
- IC50 [17]: 4.4 nM
- Kd [9]: 0.48 nM
- koff [9]: 0.000304 s⁻¹
- kon [9]: 633000 M⁻¹ s⁻¹
- Kd (cynomolgus CTLA-4): 0.59 nM
- koff (cynomolgus CTLA-4): 0.000674 s⁻¹
- kon (cynomolgus CTLA-4): 1.15e+06 M⁻¹ s⁻¹
- binding result [18]: no binding (tested: about 200 nM)
- IC50 [19]: 5 nM
